Molecular target: His6-tagged monovalent streptavidin (UniProt P22629)
Assay: pull-down

- percent of the Dicer sample retained on the Ni column with His6-streptavidin: 60%
Substance: C-terminal AviTag Dicer, biotinylated (from UniProt Q9UPY3 1-1922) (enzyme)
